# Measured values from paper PMC7027807.
# Target: CP-His-CP MS2 dimer (bacteriophage MS2)
# Experiment: cryo-EM structure; large particles (~330 Å) of the same CP-His-CP sample; icosahedral T = 4 reconstruction at 6 Å, x100k and x150k datasets together; coat protein dimers of PDB 5TC1 fitted as rigid bodies
substance,measurement,value
CP-His-CP MS2 dimer,stoichiometry N (coat proteins),240
